Experiment [1] concerns the target T1, full length human SIRPα on cell membranes (HEK293-SIRPα cells; 293F-SIRPα cells) (human, UniProt P78324 31-504).
T1 construct: whole, on cells; also called cell surface human SIRPα; cell surface SIRPα
In words: cell based binding FACS on HEK293-SIRPα cells, MFI.

In experiment [2] the target is T2, full length human SIRPβ on cell membranes (HEK293-SIRPβ cells; 293F cells expressing human SIRPβ) (human, UniProt O00241 30-398).
T2 construct: whole, on cells; also called cell surface human SIRPβ
The experiment in a line: cell based binding FACS on HEK293-SIRPβ cells, MFI.

The target in experiment [3] is human SIRPα-isoform 2-his protein (human). The experiment in a line: indirect ELISA on coated human SIRPα-isoform 2-his, OD(450-630).
The target of experiment [4] is T1, full length human SIRPα on cell …. The experiment in a line: cell based blocking FACS on 293F-SIRPα cells; blocked ligand: biotin-labeled human CD47-Fc, MFI.
For experiment [5], the target named is T3, human SIRPα-his protein (human, UniProt P78324 31-370). In words: competitive ELISA on coated human SIRPα-his; blocked ligand: biotin-labeled human CD47-his, OD(450-630). In general terms: An ELISA detects its analyte on a solid surface through an enzyme-linked reagent.
Experiment [6] has as its target T4, full length human SIRPγ endogenously expressed on Jurkat cells (human, UniProt Q9P1W8 29-387).
T4 construct: whole, on cells; also called human SIRPγ expressed on Jurkat cells
In words: cell based binding FACS on Jurkat cells (endogenous human SIRPγ), MFI; curve flat near MFI 0 (see non_binding).

The target of experiment [7] is T5, recombinant human SIRPα-Fc protein (human, biotin-labeled (sites not given)).
T5 construct: also called biotin-labeled human SIRPα-Fc protein
The experiment in a line: capture ELISA, antibody captured on anti-mouse IgG F(ab')2, biotin-labeled human SIRPα-Fc in solution, OD(450-630).

The target of experiment [8] is T6, cynomolgus SIRPα-his protein (cynomolgus).
T6 construct: also called Cyno SIRPα-his; monkey SIRPα
T6 chain: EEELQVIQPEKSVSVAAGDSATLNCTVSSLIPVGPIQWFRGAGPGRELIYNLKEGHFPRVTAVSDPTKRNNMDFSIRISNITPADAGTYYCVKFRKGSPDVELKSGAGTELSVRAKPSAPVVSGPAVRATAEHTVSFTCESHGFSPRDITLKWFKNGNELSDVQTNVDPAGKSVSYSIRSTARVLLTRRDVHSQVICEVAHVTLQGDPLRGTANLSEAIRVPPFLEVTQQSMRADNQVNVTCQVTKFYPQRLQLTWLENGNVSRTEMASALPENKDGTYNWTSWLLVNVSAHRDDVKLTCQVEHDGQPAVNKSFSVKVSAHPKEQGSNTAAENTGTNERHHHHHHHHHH
The experiment in a line: indirect ELISA on coated cynomolgus SIRPα-his, OD(450-630); curve rises only above about 3 nM, to OD about 0.9 at the last point, no plateau.

The target in experiment [9] is T1, full length human SIRPα on cell …. The experiment in a line: cell based binding FACS on HEK293-SIRPα cells, MFI; curve not visible in the scan.
The target of experiment [10] is T2, full length human SIRPβ on cell …. In words: cell based binding FACS on HEK293-SIRPβ cells, MFI; curve not visible in the scan.
The target in experiment [11] is T6, cynomolgus SIRPα-his protein. In words: indirect ELISA on coated cynomolgus SIRPα-his, OD(450-630); curve not visible in the scan.
Experiment [12] addresses human SIRPα-isoform 2-his protein (human). The experiment in a line: indirect ELISA on coated human SIRPα-isoform 2-his, OD(450-630); curve not visible in the scan.
Experiment [13] deals with T4, full length human SIRPγ endogenously …. The experiment in a line: cell based binding FACS on Jurkat cells (endogenous human SIRPγ), MFI; curve not separable in the scan; paragraph 186 says no binding.
For experiment [14], the target named is T1, full length human SIRPα on cell …. The experiment in a line: cell based blocking FACS on 293F-SIRPα cells; blocked ligand: biotin-labeled human CD47-Fc, MFI; curve only in faint traces.
The target of experiment [15] is T3, human SIRPα-his protein. In words: competitive ELISA on coated human SIRPα-his; blocked ligand: biotin-labeled human CD47-his, OD(450-630); curve not visible in the scan.
Experiment [16] addresses T5, recombinant human SIRPα-Fc protein. In words: capture ELISA, antibody captured on anti-mouse IgG F(ab')2, biotin-labeled human SIRPα-Fc in solution, OD(450-630); curve not visible in the scan.
In another experiment the target is T7, mouse SIRPα-his (mouse, UniProt P97797 35-363, limits assumed).
T7 chain: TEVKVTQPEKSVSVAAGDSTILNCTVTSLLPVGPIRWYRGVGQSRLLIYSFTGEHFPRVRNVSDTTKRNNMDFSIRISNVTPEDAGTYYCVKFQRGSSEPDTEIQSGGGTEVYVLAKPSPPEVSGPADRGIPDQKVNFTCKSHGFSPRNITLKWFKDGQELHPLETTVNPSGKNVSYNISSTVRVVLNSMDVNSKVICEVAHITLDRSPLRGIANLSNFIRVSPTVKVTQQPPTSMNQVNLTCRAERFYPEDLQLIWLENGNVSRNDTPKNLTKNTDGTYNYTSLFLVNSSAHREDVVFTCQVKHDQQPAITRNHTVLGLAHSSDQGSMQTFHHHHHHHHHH
The experiment in a line: indirect ELISA on coated mouse SIRPα-his, OD(450-630).

Experiment [17] concerns the target human SIRPα-V8-his protein (human, UniProt P78324 31-370, limits assumed). In words: indirect ELISA on coated human SIRPα-V8-his, OD(450-630).
The target of experiment [18] is human SIRPα-isoform 2-his protein (human). In words: indirect ELISA on coated human SIRPα-isoform 2-his, OD(450-630). This is another data set of the same source.
The target of experiment [19] is T1, full length human SIRPα on cell …. The experiment in a line: cell based binding FACS on 293F cells expressing human SIRPα, MFI.
Experiment [20] concerns the target T2, full length human SIRPβ on cell …. The experiment in a line: cell based binding FACS on 293F cells expressing human SIRPβ, MFI.
A further experiment has as its target human SIRPγ-his protein (human, UniProt Q9P1W8 29-360, limits assumed). The experiment in a line: SPR (Biacore T200), antibody captured on Protein A chip, human SIRPγ-his flowed. A general note: Surface plasmon resonance follows binding to a sensor surface in real time, without labels.
The target of experiment [21] is T8, human FcRn protein (Cat #FCM-H5286, Acro biosystems Inc.) (human, UniProt P55899 24-297; P61769 21-119). In words: SPR (Biacore); human FcRn covalently linked to CM5 chip, antibody flowed from 62.5 µg/ml; pH 6.0.
Experiment [22] deals with T8, human FcRn protein (Cat #FCM-H5286, …). In words: SPR (Biacore); human FcRn covalently linked to CM5 chip, antibody flowed from 62.5 µg/ml; pH 7.4.
For experiment [23], the target named is T1, full length human SIRPα on cell …. In words: cell based blocking FACS on 293F-SIRPα cells; blocked ligand: human CD47 protein (CD47-Fc), MFI.
The target of experiment [24] is T3, human SIRPα-his protein. In words: SPR (Biacore T200); antibody captured on Protein A chip, human SIRPα-his flowed from 200 nM; 1:1 Langmuir fit.
In the next experiment the target is human SIRPβ-his protein (human, UniProt O00241 30-371). In words: SPR (Biacore T200); antibody captured on Protein A chip, human SIRPβ-his flowed from 200 nM; 1:1 Langmuir fit.
Experiment [25] addresses T6, cynomolgus SIRPα-his protein. The experiment in a line: indirect ELISA on coated cynomolgus SIRPα-his, OD(450-630); curve flat at the baseline (see non_binding).
Experiment [26] deals with human SIRPα protein (soluble, used on 293F-CD47 cells) (human, UniProt P78324 31-370, limits assumed). In words: cell based blocking FACS on 293F-CD47 cells; soluble human SIRPα protein blocked from binding cell surface human CD47, MFI.
The target of experiment [27] is T4, full length human SIRPγ endogenously …. In words: cell based binding FACS on Jurkat cells (endogenous human SIRPγ), MFI; curve flat at MFI about 35 up to about 13 nM, rises to about 115 only at the last point (about 67 nM); paragraph 213 says no binding.

This is an account of results in US20250250355A1 (BIOSION, published 2025).

As a reminder, the EC50 is the midpoint of the concentration-response curve. As usually defined, the IC50 is the midpoint of a concentration-inhibition curve. A word on the Kd: it is a measure of binding affinity in units of concentration. Higher therefore signals a looser complex. The term koff denotes the first-order rate constant of dissociation. Low values mean a long-lived complex, high ones a short-lived complex. In general, kon refers to a measure of how fast the partners come together. Read a high kon as fast association.

Chain of human SIRPβ-his protein (O00241 other isoform, or with tags, fused parts or gaps limits assumed): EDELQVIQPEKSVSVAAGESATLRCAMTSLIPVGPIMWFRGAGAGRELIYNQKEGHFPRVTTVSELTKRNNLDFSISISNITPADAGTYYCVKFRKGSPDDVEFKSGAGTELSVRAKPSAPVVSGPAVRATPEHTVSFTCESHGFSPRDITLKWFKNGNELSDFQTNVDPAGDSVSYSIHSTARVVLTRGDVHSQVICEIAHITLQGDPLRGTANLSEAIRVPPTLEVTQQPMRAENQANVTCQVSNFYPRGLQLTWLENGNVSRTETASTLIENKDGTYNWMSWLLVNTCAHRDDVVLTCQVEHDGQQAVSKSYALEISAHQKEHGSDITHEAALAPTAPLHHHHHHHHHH
T2 sequence (O00241 30-398): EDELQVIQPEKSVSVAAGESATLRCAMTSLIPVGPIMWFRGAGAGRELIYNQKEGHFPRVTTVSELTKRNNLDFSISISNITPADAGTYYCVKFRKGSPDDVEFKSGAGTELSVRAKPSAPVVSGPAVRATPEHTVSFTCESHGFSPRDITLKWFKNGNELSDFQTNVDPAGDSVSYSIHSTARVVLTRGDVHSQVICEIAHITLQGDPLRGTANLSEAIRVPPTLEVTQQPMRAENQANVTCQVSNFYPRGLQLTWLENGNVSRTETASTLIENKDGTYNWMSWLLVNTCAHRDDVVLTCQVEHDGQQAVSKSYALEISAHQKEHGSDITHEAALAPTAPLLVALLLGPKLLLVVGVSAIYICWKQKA
T4 sequence (Q9P1W8 29-387): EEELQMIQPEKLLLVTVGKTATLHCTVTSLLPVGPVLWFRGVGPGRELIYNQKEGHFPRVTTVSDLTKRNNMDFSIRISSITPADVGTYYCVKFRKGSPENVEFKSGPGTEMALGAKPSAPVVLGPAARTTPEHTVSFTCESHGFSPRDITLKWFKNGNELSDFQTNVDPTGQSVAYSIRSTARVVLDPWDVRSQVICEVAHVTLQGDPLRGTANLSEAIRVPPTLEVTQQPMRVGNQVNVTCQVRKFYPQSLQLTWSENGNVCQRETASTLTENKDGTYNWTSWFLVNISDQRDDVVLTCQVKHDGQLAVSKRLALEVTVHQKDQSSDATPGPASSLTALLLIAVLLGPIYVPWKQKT
T3 sequence (P78324 other isoform, or with tags, fused parts or gaps limits assumed): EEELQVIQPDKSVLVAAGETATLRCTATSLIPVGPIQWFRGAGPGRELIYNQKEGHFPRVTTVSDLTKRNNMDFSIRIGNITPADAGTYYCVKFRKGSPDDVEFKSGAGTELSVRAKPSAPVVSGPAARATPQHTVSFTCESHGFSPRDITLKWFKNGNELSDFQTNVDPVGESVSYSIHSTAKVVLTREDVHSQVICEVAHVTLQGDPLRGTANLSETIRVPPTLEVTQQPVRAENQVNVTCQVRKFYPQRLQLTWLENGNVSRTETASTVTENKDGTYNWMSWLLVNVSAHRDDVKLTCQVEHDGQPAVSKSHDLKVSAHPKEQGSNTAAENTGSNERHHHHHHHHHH
Chain of human SIRPα-isoform 2-his protein (human) (chain, as listed by the source limits assumed): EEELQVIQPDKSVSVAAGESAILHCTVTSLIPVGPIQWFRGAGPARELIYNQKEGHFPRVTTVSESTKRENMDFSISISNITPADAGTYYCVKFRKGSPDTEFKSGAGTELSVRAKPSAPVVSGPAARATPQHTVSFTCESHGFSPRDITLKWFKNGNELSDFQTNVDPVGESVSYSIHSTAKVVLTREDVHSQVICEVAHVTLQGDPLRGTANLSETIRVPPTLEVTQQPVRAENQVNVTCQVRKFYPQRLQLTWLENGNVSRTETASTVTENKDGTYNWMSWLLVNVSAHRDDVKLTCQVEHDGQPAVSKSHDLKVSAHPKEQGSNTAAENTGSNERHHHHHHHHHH
T1 sequence (P78324 31-504): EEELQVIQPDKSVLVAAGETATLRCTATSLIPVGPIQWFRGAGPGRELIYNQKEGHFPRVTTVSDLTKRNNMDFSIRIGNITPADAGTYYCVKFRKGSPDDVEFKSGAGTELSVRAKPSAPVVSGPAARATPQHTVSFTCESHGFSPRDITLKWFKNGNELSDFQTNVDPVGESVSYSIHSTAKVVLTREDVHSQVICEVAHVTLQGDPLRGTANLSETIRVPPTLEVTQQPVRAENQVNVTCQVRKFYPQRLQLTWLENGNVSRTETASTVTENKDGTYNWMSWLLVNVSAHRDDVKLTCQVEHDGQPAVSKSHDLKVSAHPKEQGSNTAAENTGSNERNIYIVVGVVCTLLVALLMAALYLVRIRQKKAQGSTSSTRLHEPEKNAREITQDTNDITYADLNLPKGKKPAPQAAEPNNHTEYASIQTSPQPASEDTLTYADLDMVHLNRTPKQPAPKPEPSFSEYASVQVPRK
T5 sequence (chain, as listed by the source limits assumed): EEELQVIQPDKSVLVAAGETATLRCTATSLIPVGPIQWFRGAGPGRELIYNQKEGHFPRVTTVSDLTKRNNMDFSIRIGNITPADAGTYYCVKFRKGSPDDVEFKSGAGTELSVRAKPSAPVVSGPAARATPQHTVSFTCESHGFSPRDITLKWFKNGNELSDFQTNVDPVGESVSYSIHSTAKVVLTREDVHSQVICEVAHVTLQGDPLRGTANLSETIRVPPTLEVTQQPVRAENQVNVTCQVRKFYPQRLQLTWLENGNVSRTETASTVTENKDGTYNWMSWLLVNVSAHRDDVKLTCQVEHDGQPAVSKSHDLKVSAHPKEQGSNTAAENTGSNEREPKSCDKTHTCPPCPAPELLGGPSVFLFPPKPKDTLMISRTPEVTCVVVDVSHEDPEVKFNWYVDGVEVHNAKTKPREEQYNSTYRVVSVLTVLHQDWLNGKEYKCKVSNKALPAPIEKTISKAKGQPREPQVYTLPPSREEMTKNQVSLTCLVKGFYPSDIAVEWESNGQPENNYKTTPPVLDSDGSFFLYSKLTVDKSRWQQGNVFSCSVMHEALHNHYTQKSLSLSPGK
T8 sequence (P55899 24-297 limits assumed, chain 1 of 2): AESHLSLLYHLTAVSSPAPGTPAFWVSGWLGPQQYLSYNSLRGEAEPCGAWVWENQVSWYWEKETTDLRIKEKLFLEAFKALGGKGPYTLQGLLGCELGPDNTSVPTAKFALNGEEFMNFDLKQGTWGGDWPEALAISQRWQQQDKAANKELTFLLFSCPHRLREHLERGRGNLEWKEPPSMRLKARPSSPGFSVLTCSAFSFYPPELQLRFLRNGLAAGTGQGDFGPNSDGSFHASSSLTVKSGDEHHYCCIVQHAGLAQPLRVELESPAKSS
T8 sequence (P61769 21-119 limits assumed, chain 2 of 2): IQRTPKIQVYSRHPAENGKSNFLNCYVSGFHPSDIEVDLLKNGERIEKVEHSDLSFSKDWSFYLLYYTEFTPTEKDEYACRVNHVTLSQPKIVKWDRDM
Chain of human SIRPα protein (soluble, used on 293F-CD47 cells) (P78324 31-370 limits assumed): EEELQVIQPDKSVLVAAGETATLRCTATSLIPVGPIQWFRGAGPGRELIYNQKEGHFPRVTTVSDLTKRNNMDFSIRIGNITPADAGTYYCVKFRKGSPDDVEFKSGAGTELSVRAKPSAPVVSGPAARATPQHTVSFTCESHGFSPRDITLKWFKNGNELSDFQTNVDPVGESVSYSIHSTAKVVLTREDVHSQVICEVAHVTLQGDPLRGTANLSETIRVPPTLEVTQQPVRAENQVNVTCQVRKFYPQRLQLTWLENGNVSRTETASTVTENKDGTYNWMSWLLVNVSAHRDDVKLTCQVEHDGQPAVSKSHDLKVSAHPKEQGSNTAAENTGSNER
Chain of human SIRPγ-his protein (Q9P1W8 29-360 limits assumed): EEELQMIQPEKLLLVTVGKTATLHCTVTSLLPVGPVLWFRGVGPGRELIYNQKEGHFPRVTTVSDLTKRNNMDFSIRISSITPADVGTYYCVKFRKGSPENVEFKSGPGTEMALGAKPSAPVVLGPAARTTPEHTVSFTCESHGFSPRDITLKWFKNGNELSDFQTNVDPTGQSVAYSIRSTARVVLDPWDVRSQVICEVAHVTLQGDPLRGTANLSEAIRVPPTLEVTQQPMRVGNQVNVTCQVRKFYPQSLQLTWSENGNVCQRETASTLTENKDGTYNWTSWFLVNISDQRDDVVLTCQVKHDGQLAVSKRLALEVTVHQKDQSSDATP
Chain of human SIRPα-V8-his protein (P78324 other isoform, or with tags, fused parts or gaps limits assumed): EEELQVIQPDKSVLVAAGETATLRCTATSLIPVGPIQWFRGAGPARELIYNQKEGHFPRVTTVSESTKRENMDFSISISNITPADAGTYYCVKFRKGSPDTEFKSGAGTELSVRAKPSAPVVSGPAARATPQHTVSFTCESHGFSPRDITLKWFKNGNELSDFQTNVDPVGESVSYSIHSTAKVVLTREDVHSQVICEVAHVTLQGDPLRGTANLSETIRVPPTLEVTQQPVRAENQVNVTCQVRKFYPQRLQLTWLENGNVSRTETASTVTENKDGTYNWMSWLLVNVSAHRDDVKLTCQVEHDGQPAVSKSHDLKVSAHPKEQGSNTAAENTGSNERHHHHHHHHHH

B1: E1F1B1C3 (antibody, V domains shown)
VH: QVQLVQSGAEVKKPGASVKVSCKASGYTFTSNAMHWVRQVPGQGLEWMGWIKAGNGEIKYSQKFQGRVTITRDTSATTAYMELSSLRSEDTAVYYCARGDYYYYYMDVWGKGTTVTVSS
VL: DIQVTQSPSSLSASVGDRVTITCRASQSISDFLNWYQQKPGKAPKLLIHAASSLQNGVPSRFSGSGSGTDFSLTINSLQPEDFATYYCQQSYSTPLSFGGGTKVEIK
Turning to B1, the EC50 in [1] worked out at 0.303 nM; in experiment [2], 0.217 nM; in [3] it was 0.105 nM; in [6], 106 nM; in experiment [7], 0.0491 nM; in experiment [8], 48.1 nM. The IC50 in experiment [4] was determined as 0.146 nM; in the experiment with human SIRPα-his protein [5] it was 2.13 nM.

B2: E1H10B7C7 (antibody, V domains shown)
VH: QVQLVQSGAEVKKPGASVKVSCKASGYTFTSYAMQWVRQAPGQRLEWMGWIIAGNGDTKYSQNFQDRVTLTRDTSANTAYMDLSGLRSEDTAVYYCARGSGFSGYGYFDKWGQGTLVTVSS
VL: DIQMTQSPSSLSASVGDRVTITCRASHSISSYLNWYQQKPGKVPKLLIYASSSLQSGVPSRFSGNGSGTDFTLIISSLQPEDFATYYCQQSHSIPLTFGGGTKVEIK
B2: the EC50 in [9] was found to be 0.842 nM; in experiment [10], 0.689 nM; in experiment [11], 0.131 nM; in [12] it was 0.162 nM; in [13], 0.5 nM; in [16], 0.103 nM. In addition, the IC50 in [14] stood at 0.853 nM; with human SIRPα-his protein [15], 2.68 nM.

B3: E1F1B1C3-CDRV1-IgG1 (YTE) (antibody)
heavy: QVQLVQSGAEVKKPGASVKVSCKASGYTFTSNAMHWVRQVPGQGLEWMGWIKAGNAEIKYSQKFQGRVTITRDTSATTAYMELSSLRSEDTAVYYCARGDYYYYYMDVWGKGTTVTVSSASTKGPSVFPLAPSSKSTSGGTAALGCLVKDYFPEPVTVSWNSGALTSGVHTFPAVLQSSGLYSLSSVVTVPSSSLGTQTYICNVNHKPSNTKVDKKVEPKSCDKTHTCPPCPAPEAQGGPSVFLFPPKPKDTLYITREPEVTCVVVDVSHEDPEVKFNWYVDGVEVHNAKTKPREEQYNSTYRVVSVLTVLHQDWLNGKEYKCQVSNKALPAPIEKTISKAKGQPREPQVYTLPPSRDELTKNQVSLTCLVKGFYPSDIAVEWESNGQPENNYKTTPPVLDSDGSFFLYSKLTVDKSRWQQGNVFSCSVMHEALHNHYTQKSLSLSPG
light: DIQVTQSPSSLSASVGDRVTITCRASQSISDFLNWYQQKPGKAPKLLIHAASSLQAGVPSRFSGSGSGTDFSLTINSLQPEDFATYYCQQSYSTPLSFGGGTKVEIKRTVAAPSVFIFPPSDEQLKSGTASVVCLLNNFYPREAKVQWKVDNALQSGNSQESVTEQDSKDSTYSLSSTLTLSKADYEKHKVYACEVTHQGLSSPVTKSFNRGEC
Take B3: the values for the binding result with mouse SIRPα-his and with human SIRPγ-his protein were “no binding (tested: ~67 nM)” and “no binding (tested: antigen starting at 200 nM)”, respectively. Also, the EC50 in experiment [17] was 0.179 nM; in [18] it was 0.106 nM; in [19], 0.27 nM; in experiment [20] it was 0.2 nM; in [25], 86.7 nM; in [27] it was about 38.6 nM. In addition, the Kd in [21] amounted to 26.8 nM; in experiment [22] it was 651 nM; with human SIRPα-his protein [24] it was 0.824 nM; in the experiment with human SIRPβ-his protein it was 2.81 nM. Also, the figures for the IC50 in experiment [23] and in [26] were 0.573 nM and 0.264 nM, respectively. Also, the results for the koff with human SIRPα-his protein [24] and with human SIRPβ-his protein were 0.00105 s⁻¹ and 0.002 s⁻¹, respectively. Besides, the kon with human SIRPα-his protein [24] came out at 1.28e+06 M⁻¹ s⁻¹; with human SIRPβ-his protein, 713000 M⁻¹ s⁻¹.
